For two molecules, activity (fold luciferase over substrate alone) and activity results are on record in patent US20030226164, “Lambda integrase mediated recombination in plants” (Syngenta Participations AG, published 2003).

The target of data set [1] is T1, Lambda Int-h/218 E174K,E218K (Bacteriophage lambda) (UniProt P03700).
T1 sequence: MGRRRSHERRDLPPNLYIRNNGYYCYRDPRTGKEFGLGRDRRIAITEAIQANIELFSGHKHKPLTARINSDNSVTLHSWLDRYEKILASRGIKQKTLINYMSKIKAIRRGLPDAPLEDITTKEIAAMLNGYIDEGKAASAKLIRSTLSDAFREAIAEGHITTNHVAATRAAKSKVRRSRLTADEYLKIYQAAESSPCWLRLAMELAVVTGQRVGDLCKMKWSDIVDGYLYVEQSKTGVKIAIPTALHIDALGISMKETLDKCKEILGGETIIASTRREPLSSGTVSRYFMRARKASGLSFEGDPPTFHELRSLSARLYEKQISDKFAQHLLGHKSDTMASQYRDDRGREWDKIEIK
In words: cell_activity. Conditions: attP x attB without IHF, maize BMS cells.

Data set [2] concerns the target T2, Lambda Int-h (SynInt-h) E174K (Bacteriophage lambda) (UniProt P03700).
T2 sequence: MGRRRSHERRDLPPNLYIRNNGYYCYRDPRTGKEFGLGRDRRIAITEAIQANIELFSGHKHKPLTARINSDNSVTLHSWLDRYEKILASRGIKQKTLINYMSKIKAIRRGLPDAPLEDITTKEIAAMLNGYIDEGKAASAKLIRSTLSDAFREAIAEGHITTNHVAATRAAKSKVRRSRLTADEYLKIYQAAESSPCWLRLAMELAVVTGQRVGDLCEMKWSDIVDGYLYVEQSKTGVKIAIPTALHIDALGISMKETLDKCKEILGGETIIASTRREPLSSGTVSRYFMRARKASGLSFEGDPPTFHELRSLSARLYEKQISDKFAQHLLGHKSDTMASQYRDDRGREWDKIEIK
In words: cell_activity. Conditions: attP x attB without IHF, maize BMS cells.

In another data set the target is T3, Lambda Int-h (SynInt-h) (Bacteriophage lambda, UniProt P03700 SEQ:1-356, E174K).
T3 sequence: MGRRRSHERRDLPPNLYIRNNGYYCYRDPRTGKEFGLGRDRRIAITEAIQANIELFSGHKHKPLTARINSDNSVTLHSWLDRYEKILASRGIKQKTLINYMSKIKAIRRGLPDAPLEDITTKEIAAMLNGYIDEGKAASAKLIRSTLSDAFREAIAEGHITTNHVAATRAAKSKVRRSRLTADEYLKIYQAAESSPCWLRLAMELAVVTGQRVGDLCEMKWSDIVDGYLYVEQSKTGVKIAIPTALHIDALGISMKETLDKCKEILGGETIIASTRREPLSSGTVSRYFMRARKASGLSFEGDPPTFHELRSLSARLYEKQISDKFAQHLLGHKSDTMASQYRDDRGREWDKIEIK
In words: cell_activity; attB x attP without IHF, maize BMS cells. Conditions: chain copies: 4. Here is the method: (§1) Bombarded BMS cells are incubated in the dark at 28° C. for 48 hours. After incubation, the cells are assayed for luciferase expression levels.

The target of a further data set is T4, Lambda Int-h/218 (Bacteriophage lambda, UniProt P03700 SEQ:1-356, E174K,E218K).
T4 sequence: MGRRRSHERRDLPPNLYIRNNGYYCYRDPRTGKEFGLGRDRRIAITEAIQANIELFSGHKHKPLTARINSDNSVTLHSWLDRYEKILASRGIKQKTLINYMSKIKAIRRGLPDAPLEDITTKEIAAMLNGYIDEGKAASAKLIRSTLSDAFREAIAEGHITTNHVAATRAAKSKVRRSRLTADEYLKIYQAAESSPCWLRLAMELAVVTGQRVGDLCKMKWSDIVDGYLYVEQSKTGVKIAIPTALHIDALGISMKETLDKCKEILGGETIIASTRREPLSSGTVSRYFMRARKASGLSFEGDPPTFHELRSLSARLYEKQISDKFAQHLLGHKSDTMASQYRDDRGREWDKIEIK
The data set is described as above. Conditions: chain copies: 4. The protocol:
as §1

“TCTGTTACAGGTCACTAATACCATCTAAGTAGTTGATTCATAGTGACTGCATATGTTGTGTTTTACAGTATTATGTAGTCTGTTTTTTATGCAAAATCTAATTTAATATATTGATATTTATATCATTTTACGTTTCTCGTTCAGCTTTTTTATACTAAGTTGGCATTATAAAAAAGCATTGCTTATCAATTTGTTGCAACGAACAGGTCACTATCAGTCAAAATAAAATCATTATTTGATTTC (double strand) [attP]”: the values for the activity (fold luciferase over substrate alone) in data set [1] and in data set [2] were 49 and 15, respectively.

B1: attB (dsDNA)
DNA 1: TGAAGCCTGCTTTTTTATACTAACTTGAGCG
DNA 2: CGCTCAAGTTAGTATAAAAAAGCAGGCTTCA
In the case of B1, the values for the activity with Lambda Int-h (SynInt-h) and in the data set with Lambda Int-h/218 were 15 fold luciferase over substrate alone and 49 fold luciferase over substrate alone, respectively.
